B1: 3F1A11 (antibody, V domains shown)
VH: EVKLVESGPGLVKPSQSLSLTCTVTGYSITSDYAWNWIRQFPGNKLEWMGYISYNTYTSYNPSLKSRISVTRDTSKNQFFLQLKSVTIEDTATYFCAGGDYYGTGAVDYWGQGTTVTVSS
VL: EIVLTQSPLSLPVSLGDQASISCRSRQTLVHTNGNTYLDWYLQKPGQSPKLLIYKVSIRFSGVPDRFSGSRSGTDFTLKISRVEAEDLGIYYCFQGSHVPWTFGGGTKLEIK
notes: murine hybridoma mAb
B2: 8E5 (antibody, V domains shown)
VH: EVQLKESGPELKKPGETVKISCKASGYTLTDFSMHWLKQAPGKGLKWMGWINTETGAPTYADDFKGRFALSLDTSANTAYLQINNLKNEDTATYFCSRGRDYDPHFDYWGQGTTVTVSS
VL: EIVLTQSPATLSVTPGDRVSLSCRASQSISDFLHWYQQRSHESPRLLIKYASQSISGIPSRFGGSGSGSDFTLNINTVEPEDVGMYYCQSAHSFPYTFGGGTKLEIK
notes: murine hybridoma mAb; also called 8ES
B3: G10F6 (antibody, V domains shown)
VH: EVKLVESGPGILQPSQTLSLTCSFSGFSLSTSGMGVSWVRQPSGKGLEWLAHIYWDDDKRYNPSLKGRLTISKDTPRNQVFLEITSVDTTDTATYYCARVPGNWDEDAMDYWGQGTTVTVSS
VL: DIQMTQSPLSLPVSLGDQASISCRSSQNIVHTNGNTYLEWYLQKVGQSPKLLIYKVSNRFSGVPDRFSGSGSGTDFTLKISRVEAEDLGVYYCFQGSHVPYTFGGGTKLEIK
notes: murine hybridoma mAb
B4: 14A10C5 (antibody, V domains shown)
VH: EVKLVESGPGILQPSQTLSLTCSFSGFSLSTSGMGVSWIRQPSGKGLEWLAHIYWDDEKRYNPSLKSRLTISKDTSSNQVFLKITSVDTADTATYYCAREGSANWEAMDYWGQGTTVTVSS
VL: DIVMTQAALSLPVSLGDQASISCRSSQNIVYTNGITYLEWYLQKPGQSPKLLIYKVSNRFSGVPDRFSGSGSATDFTLKISRVEAEDLGVYYCFQSSHVPWTFGGGTKLEIK
notes: murine hybridoma mAb; also called 14A10CS
B5: 6A7 (antibody, V domains shown)
VH: EVQLKESGAELVRPGASVKVSCKASGYSFTSYWMNWVKQRPGQGLEWIGMIHPSDSETKLNQKFRDRASLTVDKSSSTAYMQLSSPTSEDSAVYYCTINYESFYYAMDYWGQGTTVTVSS
VL: DIVMTQSPASLAVSLGQRATISCRASKSVSTSGYSYMHWYQQKPGQPPKLLLYLASNLESGVPARFSGSGSGADFTLNIHPVEEEDAATYYCLHSRELPYTFGGGTKLEIK
notes: murine hybridoma mAb
B6: 3C11 (antibody, V domains shown)
VH: EVQLQQSGTVLARPGASVKMSCKASGYNFISYWLHWIKQRPGQGLEWIGGIYPGNTDTTYNQKFKGKAKVTAVTSATTAYMELSSLTNEDSAVYYCIRYDYDRGMDYWGQGTTVTVSS
VL: DIQMTQSPSSFSVSLGDRVTITCRASEDIYYRLAWYQQKPGNAPRLLISGATALETGVPSRFSGSGSGKDYTLSITSLQTEDVATYYCQHYWNIPWTFGGGTKLEIK
notes: murine hybridoma mAb
B7: 3B12H5 (antibody, V domains shown)
VH: EVQLQQSGTVLARPGASVKMSCKASGYSFTIYWVHWVKQRPGQGLEWIGAVYPGNDDTSYNQNFKGKAKLTAVTSATTAYMELSSLTIDDSAVYYCTRHTYDEVFDYWGQGTTVTVSS
VL: DIVMTQSPSSLSVSLGDRVTITCKASEDIYYRLAWYQQKPGNAPRLLISGGTNLEAGIPSRFSGSGSGKDYTLSITSLQTEDVAIYYCQHYWNTPWTFGGGTKLEIK
notes: murine hybridoma mAb; also called 3B12HS
B8: 12E6 (antibody, V domains shown)
VH: EVQLKESGPGILQPSQTLSLTCSFSGFSLSTSGMGVGWIRQPSGKGLEWLAHIWWDDVKLYNPALKSRLTISKETSNNQVFLKIASVDAADTATYYCARIDHGYGSNYWDFDVWGAGTTVTVSS
VL: DIVMTQAAPSVPVTPGGSVSISCRSTKSLLHSDGKTYLYWFLQRPGQSPQLLIYRMSNLASGVPDRFSGSGSGTAFTLRISRVEAEDVGVYYCMQHLEYPFTFGSGTKLEIK
notes: murine hybridoma mAb
B9: 5B8 (antibody, V domains shown)
VH: EVQLKESGGGLVQPGGSLRISCATSGLTFTHYHMSWVRQPPGKAPEWLAIIRNKAYGYTTDYSASVRGRFTISRDDSQSILYLQMNTLRAEDSATYYCVREGGYGYDGTFAYWGQGTTVTVSS
VL: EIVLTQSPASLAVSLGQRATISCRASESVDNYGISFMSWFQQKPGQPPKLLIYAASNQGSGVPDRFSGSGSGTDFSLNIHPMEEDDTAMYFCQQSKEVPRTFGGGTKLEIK
notes: murine hybridoma mAb
B10: 8C9 (antibody, V domains shown)
VH: EVQLKESGGGLVQPGGSLRISCATSGLTFTHYHMSWVRQPPGKAPEWLAIIRNKAYGYTTDYSASVRGRFTISRDDSQSILYLQMNTLRPEDSATYYCVREGGYGYDGTFAYWGQGTTVTVSS
VL: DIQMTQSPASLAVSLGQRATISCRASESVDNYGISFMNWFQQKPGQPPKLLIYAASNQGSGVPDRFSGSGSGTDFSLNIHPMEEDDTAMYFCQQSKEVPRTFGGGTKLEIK
notes: murine hybridoma mAb

Experiments:
Assay in all cases: SPR (Caterra or Biacore), antigen immobilized
[1] = molecular target: T1, HuCDCP1-A (human, UniProt Q9H5V8 30-430)
T1 construct: range 30-430; expressed in HEK-293T, purified by Fc/his tag; also called human CDCP1-A; membrane-distal region of CDCP1; not shown: Fc or his tag
T1 sequence (looked up): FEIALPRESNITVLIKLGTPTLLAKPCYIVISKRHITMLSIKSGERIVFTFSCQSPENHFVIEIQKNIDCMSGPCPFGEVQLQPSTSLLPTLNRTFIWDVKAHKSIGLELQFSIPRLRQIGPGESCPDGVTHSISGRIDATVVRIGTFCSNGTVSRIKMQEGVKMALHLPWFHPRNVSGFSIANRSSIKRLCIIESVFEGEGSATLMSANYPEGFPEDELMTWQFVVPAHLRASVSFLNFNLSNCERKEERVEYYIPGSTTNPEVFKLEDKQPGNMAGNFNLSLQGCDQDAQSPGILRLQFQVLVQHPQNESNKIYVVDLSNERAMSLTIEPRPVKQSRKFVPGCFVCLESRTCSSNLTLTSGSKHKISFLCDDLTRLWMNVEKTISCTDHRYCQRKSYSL

[2] = molecular target: T2, CynoCDCP1 (Macaca fascicularis, UniProt A0A2K5VLA8 30-667)
T2 construct: extracellular domain; also called Macaca fascicularis CDCP1; monkey CDCP1; not shown: Fc or his tag
T2 sequence: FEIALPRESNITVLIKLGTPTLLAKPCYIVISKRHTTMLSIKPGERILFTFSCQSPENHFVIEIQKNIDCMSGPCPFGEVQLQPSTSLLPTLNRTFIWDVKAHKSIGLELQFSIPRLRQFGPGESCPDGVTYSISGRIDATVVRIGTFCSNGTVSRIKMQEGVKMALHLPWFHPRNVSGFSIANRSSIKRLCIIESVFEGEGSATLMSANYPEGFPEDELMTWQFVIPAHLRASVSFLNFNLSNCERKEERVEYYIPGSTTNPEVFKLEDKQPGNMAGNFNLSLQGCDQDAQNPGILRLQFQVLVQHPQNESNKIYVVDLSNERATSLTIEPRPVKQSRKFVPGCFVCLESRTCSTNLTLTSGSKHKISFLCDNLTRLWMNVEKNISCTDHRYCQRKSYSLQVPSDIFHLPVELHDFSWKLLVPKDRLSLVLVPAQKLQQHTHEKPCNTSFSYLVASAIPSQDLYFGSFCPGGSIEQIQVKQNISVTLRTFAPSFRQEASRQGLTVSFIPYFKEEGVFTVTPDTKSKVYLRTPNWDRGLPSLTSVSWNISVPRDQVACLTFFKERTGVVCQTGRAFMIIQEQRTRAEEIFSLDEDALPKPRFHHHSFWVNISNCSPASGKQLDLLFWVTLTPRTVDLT

[3] = molecular target: T3, MsCDCP1 (mouse, UniProt Q5U462 30-666)
T3 construct: extracellular domain; also called mouse CDCP1; not shown: Fc or his tag
T3 sequence (looked up): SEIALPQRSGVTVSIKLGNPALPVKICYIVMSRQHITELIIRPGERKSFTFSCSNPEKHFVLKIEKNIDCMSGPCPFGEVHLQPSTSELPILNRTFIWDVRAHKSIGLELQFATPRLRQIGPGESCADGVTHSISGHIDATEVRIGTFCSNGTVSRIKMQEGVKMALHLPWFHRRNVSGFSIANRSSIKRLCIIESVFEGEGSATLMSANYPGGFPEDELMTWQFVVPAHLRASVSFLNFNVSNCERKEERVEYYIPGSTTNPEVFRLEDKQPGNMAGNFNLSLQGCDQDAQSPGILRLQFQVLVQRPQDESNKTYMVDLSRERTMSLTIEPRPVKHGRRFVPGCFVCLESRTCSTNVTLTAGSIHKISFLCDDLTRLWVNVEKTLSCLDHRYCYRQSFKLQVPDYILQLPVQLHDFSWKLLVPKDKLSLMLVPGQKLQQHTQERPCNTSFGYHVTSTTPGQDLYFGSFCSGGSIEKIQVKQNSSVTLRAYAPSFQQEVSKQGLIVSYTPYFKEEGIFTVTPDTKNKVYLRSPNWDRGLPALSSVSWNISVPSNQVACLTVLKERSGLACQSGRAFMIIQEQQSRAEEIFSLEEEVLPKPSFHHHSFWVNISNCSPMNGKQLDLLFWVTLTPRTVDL

[4] = molecular target: T4, HuCDCP1-C (human, UniProt Q9H5V8 30-667)
T4 construct: range 30-667; expressed in HEK-293T, purified by Fc/his tag; also called human CDCP1-C; full-length extracellular domain of human CDCP1; not shown: Fc or his tag
T4 sequence (looked up): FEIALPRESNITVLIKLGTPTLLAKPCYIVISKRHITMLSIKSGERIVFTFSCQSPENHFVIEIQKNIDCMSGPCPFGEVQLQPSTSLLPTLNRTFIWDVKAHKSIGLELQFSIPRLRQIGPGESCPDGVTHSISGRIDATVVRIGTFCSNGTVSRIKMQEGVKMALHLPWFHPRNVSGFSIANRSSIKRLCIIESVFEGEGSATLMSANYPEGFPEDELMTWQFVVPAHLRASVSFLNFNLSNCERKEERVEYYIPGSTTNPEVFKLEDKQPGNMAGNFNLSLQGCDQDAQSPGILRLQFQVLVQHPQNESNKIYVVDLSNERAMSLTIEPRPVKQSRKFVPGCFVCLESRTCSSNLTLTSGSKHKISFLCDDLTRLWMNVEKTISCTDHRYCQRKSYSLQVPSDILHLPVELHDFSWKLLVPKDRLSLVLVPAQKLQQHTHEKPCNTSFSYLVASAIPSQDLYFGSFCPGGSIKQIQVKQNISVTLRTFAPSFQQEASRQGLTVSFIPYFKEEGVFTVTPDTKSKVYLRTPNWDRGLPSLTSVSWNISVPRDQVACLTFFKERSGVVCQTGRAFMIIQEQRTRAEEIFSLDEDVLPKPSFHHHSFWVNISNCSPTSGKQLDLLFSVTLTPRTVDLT

| Binder | EC50 [1] [nM] | EC50 [2] [nM] | binding result [3] | EC50 [4] [nM] | binding result [1] | EC50 [3] [nM] |
| --- | --- | --- | --- | --- | --- | --- |
| B1 | 127 | 115 | no binding (tested: 150 nM highest concentration) | 37.9 | – | – |
| B2 | 79.3 | 0.0516 | no binding (tested: 150 nM highest concentration) | 0.105 | – | – |
| B3 | – | 4.47 | no binding (tested: 150 nM highest concentration) | 5.63 | no binding (tested: 150 nM highest concentration) | – |
| B4 | – | 98.3 | no binding (tested: 150 nM highest concentration) | 2.02 | no binding (tested: 150 nM highest concentration) | – |
| B5 | – | 9.96 | – | 9.65 | no binding (tested: 150 nM highest concentration) | 27.5 |
| B6 | – | 23.6 | no binding (tested: 150 nM highest concentration) | 3.96 | no binding (tested: 150 nM highest concentration) | – |
| B7 | 52.3 | 4.5 | no binding (tested: 150 nM highest concentration) | 0.723 | – | – |
| B8 | 1.67 | 1.45 | – | 0.0634 | – | 4010 |
| B9 | – | 0.136 | no binding (tested: 150 nM highest concentration) | 1.19 | no binding (tested: 150 nM highest concentration) | – |
| B10 | – | 0.564 | no binding (tested: 150 nM highest concentration) | 1.72 | no binding (tested: 150 nM highest concentration) | – |

— patent publication US20260250410A1 (SICHUAN HUIYU PHARMACEUTICAL, published 2026)
